# Target: angiotensin-converting enzyme-2 (ACE2) with the neck domain (UniProt Q9BYF1)
# Experiment: mass photometry; proteins measured alone, non-labelled, in solution; counts of monomer, dimer and trimer species; ACE2 at 10 nM
substance,measurement,value
angiotensin-converting enzyme-2 (ACE2) with the neck domain (from UniProt Q9BYF1 18-740) (receptor),stoichiometry N,2
